According to US20220265819A1:

Tests used:
[1] = target: full length pHrodo-labelled monomeric (P301S) 2N4R tau (human) (UniProt P10636); assay: cell-based or functional assay
[2] = target: full length pHrodo-labelled aggregated (P301S) 2N4R tau (human) (UniProt P10636); assay: cell-based or functional assay
Chain of full length pHrodo-labelled aggregated (P301S) 2N4R tau (human) (P10636 other isoform, or with tags, fused parts or gaps P301S P301S): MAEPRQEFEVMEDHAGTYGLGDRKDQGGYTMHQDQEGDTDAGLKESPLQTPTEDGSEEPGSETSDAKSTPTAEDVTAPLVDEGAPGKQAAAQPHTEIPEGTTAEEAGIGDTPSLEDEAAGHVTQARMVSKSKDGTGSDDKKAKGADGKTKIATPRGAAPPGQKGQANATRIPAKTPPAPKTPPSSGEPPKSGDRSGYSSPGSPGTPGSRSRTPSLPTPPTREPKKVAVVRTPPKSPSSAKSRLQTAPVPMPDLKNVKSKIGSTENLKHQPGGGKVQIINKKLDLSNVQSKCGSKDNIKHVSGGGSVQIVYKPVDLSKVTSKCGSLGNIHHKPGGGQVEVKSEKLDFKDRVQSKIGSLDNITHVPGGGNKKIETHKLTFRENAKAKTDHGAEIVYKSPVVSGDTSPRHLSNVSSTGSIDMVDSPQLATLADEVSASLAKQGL

Chain of full length pHrodo-labelled monomeric (P301S) 2N4R tau (human) (P10636 other isoform, or with tags, fused parts or gaps P301S P301S): as above

inhibition of uptake of monomeric tau by human iPSC-derived astrocytes [1]: 39.8 % inhibition
inhibition of uptake of monomeric tau into human iPSC-derived neurons [1]: 41.2 % inhibition
inhibition of uptake of aggregated tau by human iPSC-derived astrocytes [2]: 46.3 % inhibition
inhibition of uptake of aggregated tau into human iPSC-derived neurons [2]: 65 % inhibition
inhibition of uptake of pHrodo-labelled aggregated tau into human iPSC-derived neurons at 4 h [2]: 69 % inhibition
B1: Clone 1 rabbit monoclonal IgG (antibody, V domains shown)
VH: QSLEESGGGLVKPGGTLTLTCTVSGFSLNNYDMSWVRQAPGKGLEWIGTVSTTYRRYYASWAKGRFTISKTSSTTVDLKMTSLTTEDTATYFCAASGIWGPGTLVTVSL
VL: AQVLTQTTSPVSAAVGGTVTINCQSSQRVYSNYLAWYQQKPGQPPKRLIFLASTLESGVPSRFSGSGSGTQFTLTISDLECDDAATYYCAGTYTGSIWAFGGGTEVVVKG
